From the Human Domainome abundance scans (Beltran et al. 2025)
± gives the uncertainty stated by the source.

B1: Cell division cycle and apoptosis regulator protein 1, residues 625 to 674; numbered along this chain, Q8IX12 (parent)
chain: ISTPTHWSKLDPKTMKVNDLRKELESRALSSKGLKSQLIARLTKQLKVEE

Variants of: B1
Assay: abundance fitness (aPCA) (normalised: wild type 0, dead -1); higher = more abundant; growth selection in yeast, the domain comes from the species named
Conditions: Homo sapiens

Question: For ISTPTHWSKLDPKTMKVNDLRKELESRALSSKGLKSQLIARLYKQLKVEE [T43Y], which abundance fitness is on record?
Answer: Its abundance fitness is -0.281 ± 0.082.

Question: Which abundance fitness does the source give for ISTPTHWSKLDPKTMKVNDLRKELESRALSSKGLKSQLIARLWKQLKVEE [T43W] here?
Answer: The abundance fitness was -0.202 ± 0.045.

Question: With ISTPTHWSKLDPKTMKVNDLRKELESRALSSKGLKSQLIARLQKQLKVEE [T43Q] as the variant, how does the abundance fitness read?
Answer: The abundance fitness was -0.068 ± 0.047.

Question: Which abundance fitness does the source give for ISTPTHWSKLDPKTMKVNDLRKELESRALSSKGLKSQLIARLTKQTKVEE [L46T] here?
Answer: Its abundance fitness is -0.467 ± 0.057.

Question: With ISTPTHWSKLDPKTMKVNDLRKELESRALSSKGLKSQLIARLTKQRKVEE [L46R] as the variant, how does the abundance fitness read?
Answer: The abundance fitness was -0.554 ± 0.044.

Question: Which abundance fitness does the source give for ISTPTHWSKLDPKTMKVNDLRKELESRALSSKGLKSQLIARLTKQVKVEE [L46V] here?
Answer: Its abundance fitness is -0.258 ± 0.035.

Question: With ISTPTHWSKLDPKTMKVNDLRKELESRALSSKGLKSQLIARLTKQKKVEE [L46K] as the variant, how does the abundance fitness read?
Answer: The abundance fitness was -0.347 ± 0.056.

Question: With ISTPTHWSKLDPKTMKVNDLRKELESRALSSKGLKSQLIARLTKQSKVEE [L46S] as the variant, how does the abundance fitness read?
Answer: The abundance fitness was -0.676 ± 0.04.

Question: Which abundance fitness does the source give for ISTPTHWSKLDPKTMKVNDLRKELESRALSSKGLKSQLIARLTKQIKVEE [L46I] here?
Answer: Its abundance fitness is -0.146 ± 0.047.

Question: With ISTPTHWSKLDPKTMKVNDLRKELESRALSSKGLKSQLIARLTKQGKVEE [L46G] as the variant, how does the abundance fitness read?
Answer: Its abundance fitness is -0.787 ± 0.051.

Question: With ISTPTHWSKLDPKTMKVNDLRKELESRALSSKGLKSQLIARLTKQWKVEE [L46W] as the variant, how does the abundance fitness read?
Answer: Its abundance fitness is -0.805 ± 0.035.

Question: With ISTPTHWSKLDPKTMKVNDLRKELESRALSSKGLKSQLIARLTKQYKVEE [L46Y] as the variant, how does the abundance fitness read?
Answer: Its abundance fitness is -0.617 ± 0.11.

Question: Which abundance fitness does the source give for ISTPTHWSKLDPKTMKVNDLRKELESRALSSKGLKSQLIARLTKQNKVEE [L46N] here?
Answer: The abundance fitness was -0.744 ± 0.14.

Question: For ISTPTHWSKLDPKTMKVNDLRKELESRALSSKGLKSQLIARLTKQPKVEE [L46P], which abundance fitness is on record?
Answer: The abundance fitness was -0.822 ± 0.066.

Question: For ISTPTHWSKLDPKTMKVNDLRKELESRALSSKGLKSQLIARLTKQQKVEE [L46Q], which abundance fitness is on record?
Answer: The abundance fitness was -0.335 ± 0.059.

Question: With ISTPTHWSKLDPKTMKVNDLRKELESRALSSKGLKSQLIARLTKQMKVEE [L46M] as the variant, how does the abundance fitness read?
Answer: The abundance fitness was -0.023 ± 0.055.

Question: For ISTPTHWSKLDPKTMKVNDLRKELESRALSSKGLKSQLIARLTKQDKVEE [L46D], which abundance fitness is on record?
Answer: Its abundance fitness is -0.705 ± 0.039.

Question: With ISTPTHWSKLDPKTMKVNDLRKELESRALSSKGLKSQLIARLTKQAKVEE [L46A] as the variant, how does the abundance fitness read?
Answer: Its abundance fitness is -0.549 ± 0.049.

Question: Which abundance fitness does the source give for ISTPTHWSKLDPKTMKVNDLRKELESRALSSKGLKSQLIARLTKQHKVEE [L46H] here?
Answer: Its abundance fitness is -0.827 ± 0.17.

Question: With ISTPTHWSKLDPKTMKVNDLRKELESRALSSKGLKSQLIARLTKQFKVEE [L46F] as the variant, how does the abundance fitness read?
Answer: The abundance fitness was -0.471 ± 0.076.

Question: With ISTPTHWSKLDPKTMKVNDLRKELESRALSSKGLKSQLIARLTMQLKVEE [K44M] as the variant, how does the abundance fitness read?
Answer: Its abundance fitness is -0.355 ± 0.058.

Question: For ISTPTHWSKLDPKTMKVNDLRKELESRALSSKGLKSQLIARLTTQLKVEE [K44T], which abundance fitness is on record?
Answer: Its abundance fitness is -0.128 ± 0.041.

Question: With ISTPTHWSKLDPKTMKVNDLRKELESRALSSKGLKSQLIARLTYQLKVEE [K44Y] as the variant, how does the abundance fitness read?
Answer: Its abundance fitness is -0.229 ± 0.046.

Question: For ISTPTHWSKLDPKTMKVNDLRKELESRALSSKGLKSQLIARLTDQLKVEE [K44D], which abundance fitness is on record?
Answer: Its abundance fitness is -0.167 ± 0.069.

Question: Which abundance fitness does the source give for ISTPTHWSKLDPKTMKVNDLRKELESRALSSKGLKSQLIARLTVQLKVEE [K44V] here?
Answer: The abundance fitness was -0.31 ± 0.042.

Question: With ISTPTHWSKLDPKTMKVNDLRKELESRALSSKGLKSQLIARLTLQLKVEE [K44L] as the variant, how does the abundance fitness read?
Answer: The abundance fitness was -0.289 ± 0.035.

Question: With ISTPTHWSKLDPKTMKVNDLRKELESRALSSKGLKSQLIARLTIQLKVEE [K44I] as the variant, how does the abundance fitness read?
Answer: The abundance fitness was -0.296 ± 0.042.

Question: With ISTPTHWSKLDPKTMKVNDLRKELESRALSSKGLKSQLIARLTCQLKVEE [K44C] as the variant, how does the abundance fitness read?
Answer: The abundance fitness was -0.366 ± 0.065.

Question: For ISTPTHWSKLDPKTMKVNDLRKELESRALSSKGLKSQLIARLTNQLKVEE [K44N], which abundance fitness is on record?
Answer: Its abundance fitness is -0.091 ± 0.067.

Question: Which abundance fitness does the source give for ISTPTHWSKLDPKTMKVNDLRKELESRALSSKGLKSQLIARLTSQLKVEE [K44S] here?
Answer: The abundance fitness was -0.19 ± 0.04.

Question: With ISTPTHWSKLDPKTMKVNDLRKELESRALSSKGLKSQLIARLTPQLKVEE [K44P] as the variant, how does the abundance fitness read?
Answer: Its abundance fitness is -0.652 ± 0.075.

Question: Which abundance fitness does the source give for ISTPTHWSKLDPKTMKVNDLRKELESRALSSKGLKSQLIARLTAQLKVEE [K44A] here?
Answer: The abundance fitness was -0.161 ± 0.038.

Question: For ISTPTHWSKLDPKTMKVNDLRKELESRALSSKGLKSQLIARLTHQLKVEE [K44H], which abundance fitness is on record?
Answer: Its abundance fitness is -0.246 ± 0.07.

Question: With ISTPTHWSKLDPKTMKVNDLRKELESRALSSKGLKSQLIARLTWQLKVEE [K44W] as the variant, how does the abundance fitness read?
Answer: Its abundance fitness is -0.338 ± 0.057.

Question: For ISTPTHWSKLDPKTMKVNDLRKELESRALSSKGLKSQLIARLTEQLKVEE [K44E], which abundance fitness is on record?
Answer: The abundance fitness was -0.151 ± 0.042.

Question: For ISTPTHWSKLDPKTMKVNDLRKELESRALSSKGLKSQLIARLTKTLKVEE [Q45T], which abundance fitness is on record?
Answer: Its abundance fitness is -0.093 ± 0.031.

Question: Which abundance fitness does the source give for ISTPTHWSKLDPKTMKVNDLRKELESRALSSKGLKSQLIARLTKRLKVEE [Q45R] here?
Answer: Its abundance fitness is 0.01 ± 0.041.

Question: With ISTPTHWSKLDPKTMKVNDLRKELESRALSSKGLKSQLIARLTKFLKVEE [Q45F] as the variant, how does the abundance fitness read?
Answer: Its abundance fitness is -0.237 ± 0.052.

Question: Which abundance fitness does the source give for ISTPTHWSKLDPKTMKVNDLRKELESRALSSKGLKSQLIARLTKCLKVEE [Q45C] here?
Answer: The abundance fitness was -0.042 ± 0.056.

Question: Which abundance fitness does the source give for ISTPTHWSKLDPKTMKVNDLRKELESRALSSKGLKSQLIARLTKELKVEE [Q45E] here?
Answer: Its abundance fitness is -0.118 ± 0.034.

Question: With ISTPTHWSKLDPKTMKVNDLRKELESRALSSKGLKSQLIARLTKILKVEE [Q45I] as the variant, how does the abundance fitness read?
Answer: Its abundance fitness is -0.187 ± 0.068.

Question: With ISTPTHWSKLDPKTMKVNDLRKELESRALSSKGLKSQLIARLTKWLKVEE [Q45W] as the variant, how does the abundance fitness read?
Answer: The abundance fitness was -0.244 ± 0.04.

Question: With ISTPTHWSKLDPKTMKVNDLRKELESRALSSKGLKSQLIARLTKALKVEE [Q45A] as the variant, how does the abundance fitness read?
Answer: The abundance fitness was -0.045 ± 0.033.

Question: For ISTPTHWSKLDPKTMKVNDLRKELESRALSSKGLKSQLIARLTKMLKVEE [Q45M], which abundance fitness is on record?
Answer: The abundance fitness was -0.216 ± 0.06.

Question: For ISTPTHWSKLDPKTMKVNDLRKELESRALSSKGLKSQLIARLTKKLKVEE [Q45K], which abundance fitness is on record?
Answer: The abundance fitness was -0.015 ± 0.062.

Question: With ISTPTHWSKLDPKTMKVNDLRKELESRALSSKGLKSQLIARLTKPLKVEE [Q45P] as the variant, how does the abundance fitness read?
Answer: The abundance fitness was -0.872 ± 0.06.

Question: For ISTPTHWSKLDPKTMKVNDLRKELESRALSSKGLKSQLIARLTKGLKVEE [Q45G], which abundance fitness is on record?
Answer: The abundance fitness was -0.364 ± 0.039.

Question: For ISTPTHWSKLDPKTMKVNDLRKELESRALSSKGLKSQLIARLTKSLKVEE [Q45S], which abundance fitness is on record?
Answer: Its abundance fitness is -0.144 ± 0.04.

Question: Which abundance fitness does the source give for ISTPTHWSKLDPKTMKVNDLRKELESRALSSKGLKSQLIARLTKHLKVEE [Q45H] here?
Answer: The abundance fitness was -0.284 ± 0.073.

Question: For ISTPTHWSKLDPKTMKVNDLRKELESRALSSKGLKSQLIARLTKLLKVEE [Q45L], which abundance fitness is on record?
Answer: Its abundance fitness is -0.46 ± 0.048.

Question: For ISTPTHWSKLDPKTMKVNDLRKELESRALSSKGLKSQLIARLTKDLKVEE [Q45D], which abundance fitness is on record?
Answer: The abundance fitness was -0.596 ± 0.073.

Question: With ISTPTHWSKLDPKTMKVNDLRKELESRALSSKGLKSQLIARLTKVLKVEE [Q45V] as the variant, how does the abundance fitness read?
Answer: Its abundance fitness is -0.211 ± 0.046.
